167 variants from the RNAGym collection of RNA variant scans (doi:10.7554/elife.80360) can be followed below.

To fix the notation:
B1: Hairpin Ribozyme (parent)
chain: GUCCUCUUUCACGUGCGCGUGAAAGAGAGAAGUGAACCAGAGAAACACACGUUGUGGUAUAUUACCUGGUA

The data set covers variants of B1. In words: self-cleavage, relative activity (ratio to wild type); higher = more cleavage; co-transcriptional.
Turning to U9A U52G, the self-cleavage was 0.472. Regarding U7G G15A, the self-cleavage came to 0.736. Next, U7G G19U: 0.414; U9A C46U: 0.134; U9A C46G: 0.135. The value for U8G A43C was 0.152; that for U8G A43U was 0.228; that for U9A G68A was 0.223. For the variant U8A C18A, the self-cleavage stood at 0.872. As for U8A U9A, the self-cleavage is 0.793. The value for U8A U9G was 0.791; that for U9A G51U was 0.675; that for U9A G54C was 0.3. As for U8G A35C, the self-cleavage worked out at 0.715. Next, U9C G32U: 0.0498; U8A A11C: 0.393; U8G G34U: 1.28.

In the case of U8A G19U, the self-cleavage was 0.661.

As for U8A A64G, the self-cleavage turned out to be 0.503. Next, U9A U62G: 0.122; U8A G54A: 0.396; U8C U9G: 0.374. The value for U8A G34U was 1.05. With U8A G34C, the self-cleavage was 0.902. As for U8A A39G, the self-cleavage turned out to be 0.279. The value for U8A A39U was 0.334. Consider U8G U55G, for which the self-cleavage amounted to 0.223. Next, U8C A11C: 0.289. The value for U8A G17A was 0.742; that for U8A C46A was 0.133; that for U8A C46U was 0.0775. The value for U9C A26U was 0.546. In the case of U8C, the self-cleavage came to 0.739. The value for U8G was 0.764; that for U8A was 0.745.

Turning to U8G G25C, the self-cleavage amounted to 0.0293. On to U9C A47G, for which the self-cleavage came out at 0.123. Consider U8C G54C, for which the self-cleavage is 0.346. Next, U8A A59U: 0.165; U8G G57A: 0.102; U8G G57C: 0.192. For U9A A43G, the self-cleavage came to 0.179. Next, U9A A43C: 0.142; U9C C37G: 0.595; U9C C37U: 0.529. The value for U7G C48U was 0.114; that for U8G A28C was 0.433. The value for U8G A28U was 0.514; that for U8C C37G was 0.214; that for U9A C37U was 0.317.

Take U9A C37G: the self-cleavage is 0.189.

On to U9A C37A, for which the self-cleavage turned out to be 0.193. The value for U8G C12U was 0.447; that for U8G C12A was 0.395.

For U7G G51U, the self-cleavage amounted to 0.844. For the variant U9C A44U, the self-cleavage was 0.247. For the variant U8C G17A, the self-cleavage worked out at 0.632. The value for U8C A28G was 1.07; that for U9C A61U was 0.0555; that for U8G G42U was 0.254. U8G G42C: the self-cleavage turned out to be 0.284. As to U9C G54A, the self-cleavage amounted to 0.501.

On to U9C G54C, for which the self-cleavage worked out at 0.413. Take U8C G21U: the self-cleavage came to 0.142.

Regarding U8C U14G, the self-cleavage came to 0.501.

As for U8G U14A, the self-cleavage was 0.554.

On to U8G U14G, for which the self-cleavage worked out at 0.542.

As to U8G U14C, the self-cleavage stood at 0.814. Consider U9A A28C, for which the self-cleavage was determined as 0.266.

In the case of U9A A28G, the self-cleavage is 0.748. The value for U8G U52G was 0.621; that for U8G U52A was 0.752; that for U8A C12A was 0.606.

Consider U8A U52C, for which the self-cleavage amounted to 0.647. U8G A61U: the self-cleavage was determined as 0.184.

In the case of U8G A61C, the self-cleavage was 0.189. Next, U8C C10U: 0.564; U8C G57U: 0.368. As for U8C A59U, the self-cleavage was 0.116. The value for U9A U55G was 0.279; that for U8A G21U was 0.691; that for U8G U63C was 0.155. Next, U8G U63G: 0.172.

Turning to U8C A26U, the self-cleavage turned out to be 0.336.

In the case of U8C A22C, the self-cleavage was found to be 0.209. On to U8C A22G, for which the self-cleavage came to 0.515. Next, U7G C38A: 0.129; U7G C38G: 0.0992; U8A C16G: 0.632. The value for U8A C16A was 0.876; that for U8A A47C was 0.295. Next, U8A A47U: 0.16. Take U9A A41G: the self-cleavage was determined as 0.675.

Regarding U9C G68U, the self-cleavage is 0.217. Regarding U8C C46U, the self-cleavage is 0.172.

On to U8A A43U, for which the self-cleavage came out at 0.106. The value for U9A A47G was 0.0847. In the case of U9A A47U, the self-cleavage amounted to 0.135. Turning to U8C A30C, the self-cleavage is 0.201. Next, U8C C66A: 0.19; U8C C66U: 0.273; U9A C38U: 0.388. With U9A A44G, the self-cleavage was determined as 0.0648.

Regarding U7G G42U, the self-cleavage was 0.299.

U8C G56C: the self-cleavage is 0.12. U8C U33G: the self-cleavage turned out to be 0.36.

U8C U33C: the self-cleavage was determined as 0.214. For the variant U8G G51U, the self-cleavage came out at 0.886. As to U8C U70G, the self-cleavage is 0.35. Next, U9A A23U: 0.472; U7G C37G: 0.239. Next, U7G C37U: 0.531; U9A G21C: 0.465; U8G C18G: 0.518. Next, U8A U53C: 0.778.

For the variant U8A A35C, the self-cleavage is 0.911. Next, U8G U62G: 0.163; U8G A26G: 0.673. The value for U8A A22G was 0.644.

In the case of U9C G25C, the self-cleavage worked out at 0.314. As for U9C G25A, the self-cleavage is 0.24. Next, U9C C50U: 0.314.

For U9C C50G, the self-cleavage is 0.258. Next, U8C A35G: 0.385; U9C A64G: 0.381. Next, U9C A64C: 0.201; U9C A64U: 0.0987; U7G U9C: 0.66. With U9A G19A, the self-cleavage amounted to 0.588. Turning to U9C C65U, the self-cleavage was found to be 0.258. In the case of U9A U14G, the self-cleavage was 0.74. The value for U9A U14C was 0.62. Next, U8A A41G: 0.615; U8A U62A: 0.105; U8A G56A: 0.158. Consider U8C G29C, for which the self-cleavage was found to be 0.0996. Next, U9C A11U: 0.411; U9A G56C: 0.0939; U9C C12U: 0.665. The value for U7G U52A was 0.734; that for U7G U52C was 0.961; that for U9C U14C was 0.533. Next, U9A C66U: 0.266; U8G C38G: 0.268. As to U8A U60C, the self-cleavage came to 0.89.

On to U8C A24G, for which the self-cleavage turned out to be 0.502. Next, U8C A24C: 0.196; U9C G19A: 0.704. U9C G27C: the self-cleavage stood at 0.109. For U8C A39U, the self-cleavage was determined as 0.25. Next, U8C A39G: 0.201; U8A C38G: 0.102; U8A C38A: 0.15. Consider U8A G32C, for which the self-cleavage worked out at 0.111. The value for U8G A23G was 0.759; that for U9C G17U was 0.709.

As for U8C C65G, the self-cleavage was 0.143. The value for U8C C50U was 0.172; that for U9C A59C was 0.142; that for U9C A59U was 0.146. Next, U7G C66U: 0.355; U8G U33G: 0.111; U7G G17U: 1.04.

Take U7G G17C: the self-cleavage came to 0.612. Next, U7G G17A: 0.849; U8G U70C: 0.675. With U8G U70G, the self-cleavage stood at 0.608.
